This is an account of results in PMC5963734 (Neuron, 2018).

No end group written: not given here.

For the test, the target named is full length calmodulin (recombinant, Xenopus cDNA), used with Ca2+ (Xenopus, UniProt P0DP33 1-149). Nature of the test: fluorescence polarisation. (In general: Polarisation of emitted light reports the rotation of a fluorescent probe.)

As to fluorescein-MDCLCIVTTKKYR (cysteine pairing not given here) [fluorescein-labeled PSD-95 peptide 1-13], the binding result was “binds”.
